The results in this text go back to paper PMC4742278, “BS69/ZMYND11 C-Terminal Domains Bind and Inhibit EBNA2” (PLoS Pathogens, 2016).

In general, Kd refers to the equilibrium constant for the complex coming apart. Read a high Kd as a looser complex.

In experiment [1] the target is BS69 MYND domain (BS69_(MYND), residues 516–562) (mouse). The experiment in a line: ITC; peptide (~1 mM) titrated into BS69_(MYND) or BS69_(CC-MYND) (~0.1 mM) at 5°C; 20 mM Tris-HCl pH 7.5, 100 mM NaCl, 2 mM DTT; one-site fitting model. A general note: Isothermal titration calorimetry measures the heat released or taken up as one component is titrated into another.
Experiment [2] deals with BS69/ZMYND11 coiled-coil-MYND tandem domains (BS69_(CC-MYND), residues 440–562) (mouse). The description is as above.

H-EAPILFPDDWY-NH2 [EBNA2_(435–445) peptide (NH2-…-CONH2)]: the dissociation constant Kd in experiment [1] turned out to be 93.4 µM; in experiment [2], 34.9 µM.
